Laboratory results: US20220073608A1 (JIANGSU HUAIYU PHARMACEUTICAL, published 2022)
Residue numbers refer to the chain shown, from its start.

B1: 37F11F9 (antibody, V domains shown)
VH: EVQLQQSGPVLVKPGASVKMSCKASGYTFTDYYMNWVKQSHGKSLEWIGLINPYSGGSTFNQKFKAKATLTVDKSSSSAYMDLNSLTSEDSAVYYCARVGDGYYGVTHGMDYWGQGTSVTVSS
VL: DIVMTPSQKFMSTTVGDRVSITCKASQNVGTAVAWYQQKPGQSPTILIYSASNRYTGVPDRFTGSGSGTDFTLTISNMKSEDLADYFCQQYYIYPFTFAAGTKLELK
notes: Mouse monoclonal antibody purified from hybridoma supernatant on protein A
B2: 32C8F10 (antibody, V domains shown)
VH: EVQLQQSGAELVRPGASVKLSCTASGFNIKDEYIHWVKQRPEQGLEWIGWIDPANGHTEYASRFQAKATITADTSSNTAYLQLSSLTSEDTAVYYCTTGDYDGFAYWGQGTLVTVST
VL: QIVLTQSPAIMSASPGEKVTISCSARSSVSYMYWYQQKPGSSPKPWIYRTSNLASGVPARFSGSGSGTSYSLTISSMEAEDAATYYCQHYHTYPYTFGGGTKLEIK
notes: as for B1
B3: 31G10C5 (antibody, V domains shown)
VH: B2 VH with E32D, T58I, R63N, A105T
VL: B2 VL
notes: as for B1
B4: 31C11G2 (antibody, V domains shown)
VH: B2 VH with A105V
VL: B2 VL with S22F
notes: as for B1
B5: 42B7G2 (antibody, V domains shown)
VH: QVQLQQSGAELARPGASVKLSCKASGYTFTDYGISWVKQRTGQGLEWIGEIYLRNDNSYYNEKFKGKATLTADKSSNTAYMELRSLTSEDSAVYFCARWGDHGNNYEDAMDYWGQGTSVTVSS
VL: DIVLTQSPASLAMSLGKRATISCRASESVSIIGSNLIHWYQQKPGQPPKLLIYHASNLETGVPARFSGSGSRTDFTLTIDPVEEDDVAIYYCLQSRKVPYTFGGGTKLEIK
notes: as for B1
B6: 37C4F7 (antibody, V domains shown)
VH: EFQLQQSGPEVVKPGASVKISCKASGYSFTDYNMNWMKQSKGKSLEWIGVINPNYGTTTYNQNFKGKATLTVDQSSSTAYMQLNSLTSEDSAVYYCARDMYYVYAYYTMDYWGQGTSVTVSS
VL: DVVMTQTPLSLPVSLGDQASISCRSSQSLVHSNGHTYLHWYLQRPGQSPTLLIYKVSNRFSGVPDRFSGSGSGTDFTLKISRVEAEDLGVYFCSQGTHVPWTFGGGTKLEIK
notes: as for B1
B7: 38H2E3 (antibody, V domains shown)
VH: B6 VH with N52S, N54D, G66D, R98K, Q114H
VL: B6 VL with F67V, W101R
notes: as for B1

molecular target: T1, mouse SEMA4D, full length, on CHO-K1 cells (CHO-K1 mSEMA4D) (mouse, UniProt O09126 24-861); experiment: FACS, CHO-K1 mSEMA4D cells; Ab 66.7 nM
T1 construct: whole, on cells; also called murine SEMA4D recombinant cells
T1 sequence (looked up): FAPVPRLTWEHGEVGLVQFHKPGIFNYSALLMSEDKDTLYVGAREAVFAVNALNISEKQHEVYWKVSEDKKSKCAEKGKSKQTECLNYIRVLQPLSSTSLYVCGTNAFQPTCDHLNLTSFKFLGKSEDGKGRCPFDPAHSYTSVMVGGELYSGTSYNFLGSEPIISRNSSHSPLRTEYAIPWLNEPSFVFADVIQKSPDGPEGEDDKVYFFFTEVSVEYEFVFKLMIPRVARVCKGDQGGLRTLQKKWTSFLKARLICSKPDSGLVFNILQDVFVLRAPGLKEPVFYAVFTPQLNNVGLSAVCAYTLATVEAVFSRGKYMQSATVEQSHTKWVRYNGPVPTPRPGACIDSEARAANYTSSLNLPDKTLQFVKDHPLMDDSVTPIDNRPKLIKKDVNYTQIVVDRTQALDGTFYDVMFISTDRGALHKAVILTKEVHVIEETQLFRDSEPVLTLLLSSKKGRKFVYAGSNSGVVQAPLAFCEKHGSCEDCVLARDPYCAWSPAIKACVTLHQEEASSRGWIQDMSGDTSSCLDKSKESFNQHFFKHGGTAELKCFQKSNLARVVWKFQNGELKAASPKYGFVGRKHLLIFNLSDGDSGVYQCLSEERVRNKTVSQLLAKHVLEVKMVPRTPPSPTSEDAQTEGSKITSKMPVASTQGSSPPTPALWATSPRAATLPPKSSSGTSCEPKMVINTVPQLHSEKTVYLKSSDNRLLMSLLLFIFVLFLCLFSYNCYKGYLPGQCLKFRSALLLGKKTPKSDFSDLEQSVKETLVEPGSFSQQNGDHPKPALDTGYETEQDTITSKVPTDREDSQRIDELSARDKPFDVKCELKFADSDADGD
Experimental: After the cells were counted, they were diluted with PBS to 2×10⁶ cells per milliliter. After washing, 100 μL of diluted and purified leading antibodies was added to each well and the plate was incubated for 1 hour on ice. […] Cells were washed 2 times by centrifugation with FACS buffer. The cells were suspended with 200 μL of FACS buffer, FACS (FACS Verse, purchased from BD) was used to detect and analyze the results.

Row | Binder | MFI
1 | B1 | 31
2 | B2 | 31.7
3 | B3 | 32.4
4 | B4 | 31.4
5 | B5 | 35.3
6 | B6 | 30
7 | B7 | 30

molecular target: T2, hSEMA4D ECD-His (His-tagged human SEMA4D protein extracellular domain, Met22-Arg734) (human, UniProt Q92854 22-734); experiment: ELISA, coated hSEMA4D ECD-His; Ab 0.00427 nM
T2 construct: Expressed in CHO-S cells, purified on Ni column; also called protein immunogen; immunogen A; not shown: His tag of the pCP vector
T2 sequence: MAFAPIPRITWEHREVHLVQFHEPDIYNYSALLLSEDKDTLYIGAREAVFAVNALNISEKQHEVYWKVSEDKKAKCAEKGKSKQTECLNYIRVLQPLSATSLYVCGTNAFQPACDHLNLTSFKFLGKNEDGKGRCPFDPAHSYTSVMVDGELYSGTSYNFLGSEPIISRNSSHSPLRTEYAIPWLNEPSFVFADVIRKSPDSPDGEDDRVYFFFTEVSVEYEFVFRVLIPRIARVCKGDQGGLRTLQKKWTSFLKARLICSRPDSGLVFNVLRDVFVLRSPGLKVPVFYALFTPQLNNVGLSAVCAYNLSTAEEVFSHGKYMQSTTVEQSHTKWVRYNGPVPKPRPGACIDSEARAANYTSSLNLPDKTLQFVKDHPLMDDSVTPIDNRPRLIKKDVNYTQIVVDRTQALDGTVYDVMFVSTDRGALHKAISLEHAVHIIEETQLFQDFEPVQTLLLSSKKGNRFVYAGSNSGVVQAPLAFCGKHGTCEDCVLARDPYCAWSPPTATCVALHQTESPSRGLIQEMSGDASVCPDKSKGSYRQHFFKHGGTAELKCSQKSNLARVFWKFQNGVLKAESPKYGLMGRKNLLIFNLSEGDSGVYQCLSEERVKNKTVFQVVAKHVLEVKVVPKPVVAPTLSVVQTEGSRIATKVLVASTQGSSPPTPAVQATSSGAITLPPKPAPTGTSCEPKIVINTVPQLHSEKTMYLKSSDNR
Experimental: First, hSEMA4D ECD-His was diluted with PBS to a final concentration of 1.0 μg/mL, and then was added to a 96-well ELISA plate, 100 μL per well, sealed with plastic film and incubated overnight at 4° C. On the next day, the plate was washed with a plate washing solution, that is, PBS buffer containing 0.05% (v/v) Tween20, for 4 times, and added with blocking solution, that is, PBS buffer containing 0.05% (v/v) Tween20 and 2% (w/w) BSA, blocked at 37° C. for 1 hour. The blocking solution was poured out and the plate was washed 4 times with the plate washing solution. 100 μL of the purified leading antibodies obtained in Examples 1 and 2 was added to each well. After incubation at 37° C. for 1 hour, the plate was washed 4 times with a plate washing solution. 100 μL of horseradish peroxidase (HRP) labeled secondary antibody (purchased from Sigma) was added at a dilution of 1:10000 to each well, and the plate was incubated at 37° C. for 1 hour, and washed 4 times with a plate washing solution. 100 μL TMB substrate was added to each well, and the plate was incubated at room temperature for 5 minutes, and added with 100 μL stop solution (1.0N HCl) to each well. A microplate reader (SpectraMax M5e, purchased from Molecular Device) was used to read the A450 nm value. […] Wherein, the data in the table was the OD450 nm value.

Row | Binder | OD450 nm
8 | B1 | 0.0638
9 | B2 | 0.0685
10 | B3 | 0.0915
11 | B4 | 0.0939
12 | B5 | 0.0851
13 | B6 | 0.0623
14 | B7 | 0.0744
